Measured values as given in PMC2821400.

Biological target: actin of the F-actin structures in focal adhesions of Vero cells (monkey (endogenous in Vero)) (UniProt Q76N69)
Assay: FRAP (fluorescence recovery after photobleaching); GFP-L-plastin variants bleached in a 5 µm spot in focal adhesions of live Vero cells, 37°C; curves fitted with a two-binding-state model, reaction dominant regime; pseudo-association rates k*on = kon·Seq

fold change of k*2on against WT- and S5/E-L-plastin	k1off (dissociation rate, first quick binding state)	k*1on (pseudo-association rate, first quick binding state)	Feq (equilibrium normalized concentration of free molecules)	k2off (dissociation rate, second slow binding state)	k*2on (pseudo-association rate, second slow binding state)	Substance
2 fold lower	0.073 s⁻¹	0.173 s⁻¹	–	–	–	Ser5/Ala (S5/A) GFP-L-plastin, expressed in Vero cells (from UniProt P13796 1-627) (natural protein)
–	0.612 s⁻¹	0.42 s⁻¹	–	–	–	Ser5/Glu (S5/E) GFP-L-plastin, expressed in Vero cells (from UniProt P13796 1-627) (natural protein)
–	0.616 s⁻¹	0.338 s⁻¹	0.513	0.03 s⁻¹	0.01 s⁻¹	wild type (WT) L-plastin fused to GFP, expressed in Vero cells (from UniProt P13796 1-627) (natural protein)
